This note sets out measurements from article PMC7606452.

In the test the target is recombinant K18 tau K311Q (acetylation-mimic) (human). Kind of test: Thioflavin T fluorescence of heparin-induced aggregation; 10 μM K18 tau, 100 mM sodium acetate pH 7.0, 2 mM DTT, 10 μM heparin, 37 °C; 10 μM ThT, 430 nm excitation and 500 nm emission.

“recombinant K18 tau K311Q (acetylation-mimic) (domain or fragment)”: the fold increase in ThT-positive fibrils against WT or K311R amounted to 3 fold.
